Article PMC10397247

What was measured:
[1] = molecular target: T1, 4H575-bH; assay: two-hybrid library CCNG1;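 also: natural log of median RNA to DNA barcode read ratio; higher means stronger binding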
T1 chain: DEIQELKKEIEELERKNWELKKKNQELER

[2] = molecular target: T2, 4H683-bH; assay: two-hybrid library CCNG1;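 also: natural log of median RNA to DNA barcode read ratio; higher means stronger binding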
T2 chain: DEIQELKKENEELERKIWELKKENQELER

[3] = molecular target: T3, 4H754-bH; assay: two-hybrid library CCNG1;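 also: natural log of median RNA to DNA barcode read ratio; higher means stronger binding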
T3 chain: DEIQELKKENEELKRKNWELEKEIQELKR

[4] = molecular target: T4, 4H780-bH; assay: two-hybrid library CCNG1;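 also: natural log of median RNA to DNA barcode read ratio; higher means stronger binding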
T4 chain: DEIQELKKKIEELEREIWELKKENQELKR

[5] = molecular target: T5, 4H797-bH; assay: two-hybrid library CCNG1;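 also: natural log of median RNA to DNA barcode read ratio; higher means stronger binding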
T5 chain: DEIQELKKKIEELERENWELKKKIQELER

[6] = molecular target: T6, 4H855-bH; assay: two-hybrid library CCNG1;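 also: natural log of median RNA to DNA barcode read ratio; higher means stronger binding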
T6 chain: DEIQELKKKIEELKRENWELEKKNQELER

[7] = molecular target: T7, 4H918-bH; assay: two-hybrid library CCNG1
T7 chain: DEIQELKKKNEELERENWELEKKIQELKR

[8] = molecular target: T8, 4H953-bH; assay: two-hybrid library CCNG1
T8 chain: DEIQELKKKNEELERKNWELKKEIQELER

[9] = molecular target: T9, 4H968-bH; assay: two-hybrid library CCNG1
T9 chain: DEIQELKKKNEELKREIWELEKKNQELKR

[10] = molecular target: T10, 4H584-bH; assay: two-hybrid library CCNG1
T10 chain: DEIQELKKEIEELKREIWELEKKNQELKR

[11] = molecular target: T11, 4H619-bH; assay: two-hybrid library CCNG1
T11 chain: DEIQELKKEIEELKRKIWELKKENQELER

[12] = molecular target: T12, 4H850-bH; assay: two-hybrid library CCNG1
T12 chain: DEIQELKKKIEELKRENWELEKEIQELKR

[13] = molecular target: T13, 4H906-bH; assay: two-hybrid library CCNG1
T13 chain: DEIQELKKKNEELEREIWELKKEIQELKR

[14] = molecular target: T14, APC4100-AA; assay: two-hybrid library CCmax
T14 chain: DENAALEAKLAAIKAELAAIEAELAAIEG

[15] = molecular target: T15, APC4336-AA; assay: two-hybrid library CCmax; conditions: mean of both orientations
T15 chain: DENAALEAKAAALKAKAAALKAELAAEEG

[16] = molecular target: T16, APC5009-AA; assay: two-hybrid library CCmax; conditions: mean of both orientations
T16 chain: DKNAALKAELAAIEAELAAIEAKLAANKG

[17] = molecular target: T17, APC542-AA; assay: two-hybrid library CCmax; conditions: mean of both orientations
T17 chain: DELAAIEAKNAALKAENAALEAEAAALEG

[18] = molecular target: T18, APC5531-AA; assay: two-hybrid library CCmax; conditions: mean of both orientations
T18 chain: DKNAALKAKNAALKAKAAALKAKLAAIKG

[19] = molecular target: T19, APC6088-AA; assay: two-hybrid library CCmax; conditions: mean of both orientations
T19 chain: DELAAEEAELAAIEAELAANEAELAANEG

[20] = molecular target: T20, APC7524-AA; assay: two-hybrid library CCmax; conditions: mean of both orientations
T20 chain: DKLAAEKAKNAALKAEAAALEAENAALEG

[21] = molecular target: T21, APC8401-AA; assay: two-hybrid library CCmax; conditions: mean of both orientations
T21 chain: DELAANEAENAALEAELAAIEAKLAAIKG

[22] = molecular target: T22, APC8516-AA; assay: two-hybrid library CCmax; conditions: mean of both orientations
T22 chain: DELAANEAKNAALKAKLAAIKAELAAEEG

[23] = molecular target: T23, APC9141-AA; assay: two-hybrid library CCmax; conditions: mean of both orientations
T23 chain: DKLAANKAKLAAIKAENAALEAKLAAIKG

[24] = molecular target: T24, APC9182-AA; assay: two-hybrid library CCmax; conditions: mean of both orientations
T24 chain: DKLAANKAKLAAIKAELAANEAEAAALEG

[25] = molecular target: T25, APC9291-AA; assay: two-hybrid library CCmax; conditions: mean of both orientations
T25 chain: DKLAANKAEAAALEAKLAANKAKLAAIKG

[26] = molecular target: T26, APC9806-AA; assay: two-hybrid library CCmax; conditions: mean of both orientations
T26 chain: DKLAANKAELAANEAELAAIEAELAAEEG

[27] = molecular target: T27, 4H949-bH; assay: two-hybrid library CCNG1
T27 chain: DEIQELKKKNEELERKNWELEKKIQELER

[28] = molecular target: T28, 4H570-bH; assay: two-hybrid library CCNG1
T28 chain: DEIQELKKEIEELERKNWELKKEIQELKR

[29] = molecular target: T29, 4H3066-AA; assay: two-hybrid library CCmax
T29 chain: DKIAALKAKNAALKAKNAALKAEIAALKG

[30] = molecular target: T30, 4H3102-AA; assay: two-hybrid library CCmax; conditions: mean of both orientations
T30 chain: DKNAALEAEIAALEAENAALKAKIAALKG

[31] = molecular target: T31, 4H3121-AA; assay: two-hybrid library CCmax; conditions: mean of both orientations
T31 chain: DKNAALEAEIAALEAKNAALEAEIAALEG

[32] = molecular target: T32, 4H3417-AA; assay: two-hybrid library CCmax; conditions: mean of both orientations
T32 chain: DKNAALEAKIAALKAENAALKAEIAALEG

[33] = molecular target: T33, 4H3446-AA; assay: two-hybrid library CCmax; conditions: mean of both orientations
T33 chain: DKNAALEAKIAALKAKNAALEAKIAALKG

[34] = molecular target: T34, 4H3591-AA; assay: two-hybrid library CCmax; conditions: mean of both orientations
T34 chain: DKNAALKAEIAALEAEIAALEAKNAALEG

[35] = molecular target: T35, 4H3628-AA; assay: two-hybrid library CCmax; conditions: mean of both orientations
T35 chain: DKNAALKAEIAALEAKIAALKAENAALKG

[36] = molecular target: T36, 4H3666-AA; assay: two-hybrid library CCmax; conditions: mean of both orientations
T36 chain: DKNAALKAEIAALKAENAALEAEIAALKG

[37] = molecular target: T37, 4H3709-AA; assay: two-hybrid library CCmax; conditions: mean of both orientations
T37 chain: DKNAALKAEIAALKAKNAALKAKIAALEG

[38] = molecular target: T38, 4H391-AA; assay: two-hybrid library CCmax; conditions: mean of both orientations
T38 chain: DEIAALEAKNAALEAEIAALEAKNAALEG

[39] = molecular target: T39, 4H3920-AA; assay: two-hybrid library CCmax; conditions: mean of both orientations
T39 chain: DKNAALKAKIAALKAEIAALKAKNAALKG

[40] = molecular target: T40, 4H3939-AA; assay: two-hybrid library CCmax; conditions: mean of both orientations
T40 chain: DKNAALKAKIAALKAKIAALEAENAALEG

[41] = molecular target: T41, 4H428-AA; assay: two-hybrid library CCmax; conditions: mean of both orientations
T41 chain: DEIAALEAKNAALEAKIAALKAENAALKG

[42] = molecular target: T42, 4H478-AA; assay: two-hybrid library CCmax; conditions: mean of both orientations
T42 chain: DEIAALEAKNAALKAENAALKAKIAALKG

[43] = molecular target: T43, 4H497-AA; assay: two-hybrid library CCmax; conditions: mean of both orientations
T43 chain: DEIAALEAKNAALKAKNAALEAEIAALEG

[44] = molecular target: T44, 4H656-AA; assay: two-hybrid library CCmax; conditions: mean of both orientations
T44 chain: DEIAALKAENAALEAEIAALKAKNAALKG

[45] = molecular target: T45, 4H675-AA; assay: two-hybrid library CCmax; conditions: mean of both orientations
T45 chain: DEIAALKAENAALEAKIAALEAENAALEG

[46] = molecular target: T46, 4H971-AA; assay: two-hybrid library CCmax; conditions: mean of both orientations
T46 chain: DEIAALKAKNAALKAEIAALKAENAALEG

[47] = molecular target: T47, 4H967-AA; assay: two-hybrid library CCmax
T47 chain: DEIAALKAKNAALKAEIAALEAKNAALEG

[48] = molecular target: T48, 4H626-bH; assay: two-hybrid library CCNG1
T48 chain: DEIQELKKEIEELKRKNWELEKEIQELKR

[49] = molecular target: T49, 4H3974-bH; assay: two-hybrid library CCNG1
T49 chain: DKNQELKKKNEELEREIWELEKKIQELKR

[50] = molecular target: T50, 4H43-AA; assay: two-hybrid library CCmax
T50 chain: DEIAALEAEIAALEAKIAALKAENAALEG

[51] = molecular target: T51, 4H451-AA; assay: two-hybrid library CCmax; conditions: mean of both orientations
T51 chain: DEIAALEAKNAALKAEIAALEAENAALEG

[52] = molecular target: T52, 4H510-AA; assay: two-hybrid library CCmax; conditions: mean of both orientations
T52 chain: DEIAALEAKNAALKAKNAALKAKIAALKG

[53] = molecular target: T53, 4H_APH; assay: two-hybrid library CCmax; conditions: mean of both orientations
T53 chain: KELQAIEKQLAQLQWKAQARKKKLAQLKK

[54] = molecular target: T54, 4H_BCR; assay: two-hybrid library CCmax; conditions: mean of both orientations
T54 chain: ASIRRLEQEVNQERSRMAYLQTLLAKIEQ

[55] = molecular target: GCN2_T; assay: two-hybrid library CCmax
[56] = molecular target: T55, O11-AA; assay: two-hybrid library CCmax; conditions: mean of both orientations
T55 chain: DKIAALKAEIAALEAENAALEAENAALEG

[57] = molecular target: T56, O13-AA; assay: two-hybrid library CCmax; conditions: mean of both orientations
T56 chain: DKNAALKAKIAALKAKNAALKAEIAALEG

[58] = molecular target: T57, O14-AA; assay: two-hybrid library CCmax; conditions: mean of both orientations
T57 chain: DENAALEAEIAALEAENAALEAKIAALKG

[59] = molecular target: T58, 4H626-bA; assay: two-hybrid library CCNG1
T58 chain: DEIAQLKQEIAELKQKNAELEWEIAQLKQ

[60] = molecular target: T59, 4H906-bA; assay: two-hybrid library CCNG1
T59 chain: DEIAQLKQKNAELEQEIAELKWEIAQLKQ

B1: 4H575-bH (peptide)
chain: DEIQELKKEIEELERKNWELKKKNQELER
interaction score [1]: -0.14 | interaction score [2]: -0.243 | interaction score [3]: -0.631 | interaction score [4]: -0.754 | interaction score [5]: -0.434 | interaction score [6]: 1.37 | interaction score [7]: -0.438 | interaction score [8]: -0.118 | interaction score [9]: -1.01

B2: 4H584-bH (peptide)
chain: DEIQELKKEIEELKREIWELEKKNQELKR
interaction score [10]: 1.18 | interaction score [11]: 1.2 | interaction score [12]: 0.297 | interaction score [13]: 0.202

B3: APC4100-AA (peptide)
chain: DENAALEAKLAAIKAELAAIEAELAAIEG
interaction score [14]: 0.507 | interaction score [15]: -0.916 | interaction score [16]: 0.706 | interaction score [17]: -1.56 | interaction score [18]: -0.557 | interaction score [19]: -1.46 | interaction score [20]: -1.84 | interaction score [21]: -1.35 | interaction score [22]: -1.71 | interaction score [23]: -1.35 | interaction score [24]: -1.63 | interaction score [25]: -1.29 | interaction score [26]: -1.87

B4: 4H683-bH (peptide)
chain: DEIQELKKENEELERKIWELKKENQELER
interaction score [2]: 0.562 | interaction score [3]: -0.187 | interaction score [4]: -0.661 | interaction score [5]: -0.161 | interaction score [6]: -0.174 | interaction score [7]: -1.01 | interaction score [27]: -0.385 | interaction score [8]: -1.23 | interaction score [9]: 1.12

B5: 4H570-bH (peptide)
chain: DEIQELKKEIEELERKNWELKKEIQELKR
interaction score [28]: 1.19 | interaction score [10]: -1.16 | interaction score [11]: -0.75 | interaction score [12]: 1.01 | interaction score [13]: 0.224

B6: 4H3066-AA (peptide)
chain: DKIAALKAKNAALKAKNAALKAEIAALKG
interaction score [29]: -0.506 | interaction score [30]: 0.0998 | interaction score [31]: -0.941 | interaction score [32]: -2.18 | interaction score [33]: -1.7 | interaction score [34]: -1.59 | interaction score [35]: -1.85 | interaction score [36]: 0.0105 | interaction score [37]: -1.94 | interaction score [38]: -1.09 | interaction score [39]: -1.87 | interaction score [40]: -2.16 | interaction score [41]: -1.26 | interaction score [42]: 1.25 | interaction score [43]: -0.971 | interaction score [44]: 0.231 | interaction score [45]: -1.19 | interaction score [46]: -1.81

B7: 4H967-AA (peptide)
chain: DEIAALKAKNAALKAEIAALEAKNAALEG
interaction score [47]: -0.481

B8: 4H626-bH (peptide)
chain: DEIQELKKEIEELKRKNWELEKEIQELKR
interaction score [48]: 0.932 | interaction score [13]: -0.349

B9: 4H3974-bH (peptide)
chain: DKNQELKKKNEELEREIWELEKKIQELKR
interaction score [49]: -0.338 | interaction score [28]: -0.965 | interaction score [10]: -0.203 | interaction score [11]: -0.167 | interaction score [12]: -0.0332 | interaction score [13]: -0.332

B10: 4H43-AA (peptide)
chain: DEIAALEAEIAALEAKIAALKAENAALEG
interaction score [50]: 1.54 | interaction score [51]: -1.31 | interaction score [52]: -0.823 | interaction score [53]: -0.887 | interaction score [54]: -1.44 | interaction score [55]: -1.41 | interaction score [56]: -0.943 | interaction score [57]: 0.246 | interaction score [58]: -0.845

B11: 4H626-bA (peptide)
chain: DEIAQLKQEIAELKQKNAELEWEIAQLKQ
interaction score [59]: 0.86 | interaction score [60]: -1.23
